Earlier results on four molecules are cited in patent publication US20030144198A1, “Coadministration of transport protein with conjugated cobalamin to deliver agents” (priority 2001, published 2003).

The conditions of data set [1]: the D isomer was not hydrolyzed.
For data set [2], the target named is cubilin (Homo sapiens, UniProt O60494). The conditions noted are these: at 20° C., single binding site, dependent on calcium.
The conditions of data set [3]: in plasma.

Chain of cubilin (O60494 36-3623, species assumed): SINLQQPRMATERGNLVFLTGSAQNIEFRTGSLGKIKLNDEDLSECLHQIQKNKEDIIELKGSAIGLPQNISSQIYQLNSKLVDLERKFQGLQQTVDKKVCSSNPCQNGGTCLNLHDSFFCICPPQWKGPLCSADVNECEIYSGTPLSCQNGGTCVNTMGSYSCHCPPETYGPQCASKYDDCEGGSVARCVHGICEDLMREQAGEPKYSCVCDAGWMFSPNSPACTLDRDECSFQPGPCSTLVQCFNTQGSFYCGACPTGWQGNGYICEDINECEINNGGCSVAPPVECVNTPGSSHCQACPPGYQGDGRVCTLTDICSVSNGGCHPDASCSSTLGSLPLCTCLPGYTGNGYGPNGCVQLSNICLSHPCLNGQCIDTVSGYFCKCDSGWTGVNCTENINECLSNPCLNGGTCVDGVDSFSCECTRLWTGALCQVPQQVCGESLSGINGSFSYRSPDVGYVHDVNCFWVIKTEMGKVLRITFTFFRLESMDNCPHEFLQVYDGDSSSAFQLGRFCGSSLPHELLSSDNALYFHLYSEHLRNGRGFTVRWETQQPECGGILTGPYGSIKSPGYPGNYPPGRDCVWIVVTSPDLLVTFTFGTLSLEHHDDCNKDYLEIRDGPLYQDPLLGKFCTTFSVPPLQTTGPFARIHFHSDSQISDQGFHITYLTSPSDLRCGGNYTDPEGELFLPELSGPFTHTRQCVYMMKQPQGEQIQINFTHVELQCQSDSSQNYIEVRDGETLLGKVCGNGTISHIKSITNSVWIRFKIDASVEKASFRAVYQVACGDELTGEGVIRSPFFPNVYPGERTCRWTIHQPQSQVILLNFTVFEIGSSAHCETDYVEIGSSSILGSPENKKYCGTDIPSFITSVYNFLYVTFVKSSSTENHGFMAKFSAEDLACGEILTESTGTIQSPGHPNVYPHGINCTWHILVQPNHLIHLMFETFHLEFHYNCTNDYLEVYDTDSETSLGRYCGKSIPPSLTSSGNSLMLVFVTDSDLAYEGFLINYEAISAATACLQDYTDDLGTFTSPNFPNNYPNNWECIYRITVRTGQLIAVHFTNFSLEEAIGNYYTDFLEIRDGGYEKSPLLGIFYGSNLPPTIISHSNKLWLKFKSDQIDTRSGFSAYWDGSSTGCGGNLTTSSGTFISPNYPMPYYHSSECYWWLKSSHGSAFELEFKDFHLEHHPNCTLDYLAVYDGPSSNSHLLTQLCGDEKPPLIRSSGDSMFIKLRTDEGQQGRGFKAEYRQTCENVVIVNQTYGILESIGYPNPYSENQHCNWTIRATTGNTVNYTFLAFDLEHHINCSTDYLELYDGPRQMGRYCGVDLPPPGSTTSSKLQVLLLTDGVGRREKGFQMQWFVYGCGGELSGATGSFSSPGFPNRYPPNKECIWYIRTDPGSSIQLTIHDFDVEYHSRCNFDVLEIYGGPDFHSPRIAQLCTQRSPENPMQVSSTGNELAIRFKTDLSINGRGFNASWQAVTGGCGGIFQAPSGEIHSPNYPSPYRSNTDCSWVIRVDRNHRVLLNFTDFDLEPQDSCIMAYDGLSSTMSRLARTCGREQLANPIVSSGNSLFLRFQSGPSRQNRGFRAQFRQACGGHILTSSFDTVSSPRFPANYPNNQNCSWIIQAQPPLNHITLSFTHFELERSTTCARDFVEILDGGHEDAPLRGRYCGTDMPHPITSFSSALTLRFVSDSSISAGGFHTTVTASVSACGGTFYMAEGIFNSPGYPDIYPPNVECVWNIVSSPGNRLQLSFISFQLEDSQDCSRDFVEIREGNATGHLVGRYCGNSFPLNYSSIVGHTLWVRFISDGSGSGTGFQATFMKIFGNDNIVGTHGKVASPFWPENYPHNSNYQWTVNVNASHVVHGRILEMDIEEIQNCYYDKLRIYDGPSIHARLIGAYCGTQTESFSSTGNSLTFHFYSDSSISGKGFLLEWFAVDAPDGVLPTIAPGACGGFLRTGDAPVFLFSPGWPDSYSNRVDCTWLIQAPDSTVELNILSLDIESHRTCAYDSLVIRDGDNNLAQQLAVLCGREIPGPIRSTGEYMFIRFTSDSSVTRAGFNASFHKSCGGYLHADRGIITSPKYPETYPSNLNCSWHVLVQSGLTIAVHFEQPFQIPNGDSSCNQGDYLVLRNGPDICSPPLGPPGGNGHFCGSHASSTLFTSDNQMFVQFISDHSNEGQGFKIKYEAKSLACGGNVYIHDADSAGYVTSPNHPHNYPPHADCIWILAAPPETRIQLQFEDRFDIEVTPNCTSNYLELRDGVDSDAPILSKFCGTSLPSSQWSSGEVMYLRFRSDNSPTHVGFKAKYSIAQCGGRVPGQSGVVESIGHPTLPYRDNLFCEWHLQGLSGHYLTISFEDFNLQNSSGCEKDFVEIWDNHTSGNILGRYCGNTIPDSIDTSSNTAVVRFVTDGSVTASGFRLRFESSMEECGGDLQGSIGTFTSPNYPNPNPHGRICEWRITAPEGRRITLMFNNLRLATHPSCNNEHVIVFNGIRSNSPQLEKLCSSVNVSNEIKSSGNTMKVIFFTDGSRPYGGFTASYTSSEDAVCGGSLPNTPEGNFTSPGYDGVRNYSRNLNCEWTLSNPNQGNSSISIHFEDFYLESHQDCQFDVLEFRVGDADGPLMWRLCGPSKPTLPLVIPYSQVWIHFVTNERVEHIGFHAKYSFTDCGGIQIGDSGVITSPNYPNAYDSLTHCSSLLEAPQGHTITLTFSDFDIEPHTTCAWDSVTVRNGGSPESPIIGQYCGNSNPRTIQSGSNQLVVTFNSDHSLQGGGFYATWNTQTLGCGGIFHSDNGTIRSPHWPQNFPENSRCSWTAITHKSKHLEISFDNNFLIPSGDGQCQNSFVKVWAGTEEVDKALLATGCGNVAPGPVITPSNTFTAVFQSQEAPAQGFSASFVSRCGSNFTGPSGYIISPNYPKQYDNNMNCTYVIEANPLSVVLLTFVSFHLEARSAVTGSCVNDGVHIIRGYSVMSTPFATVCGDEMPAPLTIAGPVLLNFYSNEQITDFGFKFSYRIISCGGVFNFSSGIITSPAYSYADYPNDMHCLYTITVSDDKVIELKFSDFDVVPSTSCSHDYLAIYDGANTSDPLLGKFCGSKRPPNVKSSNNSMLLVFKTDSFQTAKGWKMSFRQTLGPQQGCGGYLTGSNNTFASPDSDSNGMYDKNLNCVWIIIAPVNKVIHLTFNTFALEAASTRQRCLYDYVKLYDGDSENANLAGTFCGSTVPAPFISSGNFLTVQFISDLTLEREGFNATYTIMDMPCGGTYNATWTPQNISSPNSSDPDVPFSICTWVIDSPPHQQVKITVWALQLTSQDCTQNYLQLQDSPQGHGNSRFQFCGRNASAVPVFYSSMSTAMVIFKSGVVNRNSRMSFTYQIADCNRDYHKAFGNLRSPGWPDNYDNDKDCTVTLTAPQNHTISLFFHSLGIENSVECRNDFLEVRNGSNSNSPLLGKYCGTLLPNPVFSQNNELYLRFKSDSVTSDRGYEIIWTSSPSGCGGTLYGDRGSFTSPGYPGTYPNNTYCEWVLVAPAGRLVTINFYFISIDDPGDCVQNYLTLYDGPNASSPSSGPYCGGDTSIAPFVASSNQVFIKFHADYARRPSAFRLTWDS
Chain of cubilin (P27352 19-417 partner, species assumed): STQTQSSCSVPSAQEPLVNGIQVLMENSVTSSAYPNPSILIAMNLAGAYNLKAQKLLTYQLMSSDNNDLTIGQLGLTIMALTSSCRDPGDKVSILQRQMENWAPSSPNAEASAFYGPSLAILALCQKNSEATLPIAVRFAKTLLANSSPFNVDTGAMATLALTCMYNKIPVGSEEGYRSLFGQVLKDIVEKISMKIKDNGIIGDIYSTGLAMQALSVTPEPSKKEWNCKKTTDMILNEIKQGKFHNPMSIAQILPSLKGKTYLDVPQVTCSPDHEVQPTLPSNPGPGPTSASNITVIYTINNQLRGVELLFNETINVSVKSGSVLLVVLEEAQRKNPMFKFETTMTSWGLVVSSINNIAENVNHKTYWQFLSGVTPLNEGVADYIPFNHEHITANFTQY

In the case of `COc1cccc2c1C(=O)c1c(O)c3c(c(O)c1C2=O)C[C@@](O)(C(C)=O)C[C@@H]3O[C@H]1C[C@H](NC(=O)[C@@H](N)CC(C)C)C(O)[C@H](C)O1` (stereo partly drawn) [N-(L-leucyl) daunorubicin], the hydrolysis in vivo entry in data set [1] is given as “hydrolyzed in vivo to regenerate daunorubicin”.
As for “IF-B12: complex of intrinsic factor with vitamin B12”, the Kd in data set [2] was 1 to 5 nM.

B1: HC: haptocorrin, group of cobalamin binding proteins that includes TC-I and TC-III (protein, UniProt P20061 24-433, looked up)
Transcobalamin-1: EICEVSEENYIRLKPLLNTMIQSNYNRGTSAVNVVLSLKLVGIQIQTLMQKMIQQIKYNVKSRLSDVSSGELALIILALGVCRNAEENLIYDYHLIDKLENKFQAEIENMEAHNGTPLTNYYQLSLDVLALCLFNGNYSTAEVVNHFTPENKNYYFGSQFSVDTGAMAVLALTCVKKSLINGQIKADEGSLKNISIYTKSLVEKILSEKKENGLIGNTFSTGEAMQALFVSSDYYNENDWNCQQTLNTVLTEISQGAFSNPNAAAQVLPALMGKTFLDINKDSSCVSASGNFNISADEPITVTPPDSQSYISVNYSVRINETYFTNVTVLNGSVFLSVMEKAQKMNDTIFGFTMEERSWGPYITCIQGLCANNNDRTYWELLSGGEPLSQGAGSYVVRNGENLEVRWSKY
With B1, the t1/2 in data set [3] is 240 h.

B2: TC-I: transcobalamin I, plasma cobalamin storage protein (protein, UniProt P20061 24-433, looked up)
Transcobalamin-1: B1 Transcobalamin-1
Consider B2, for which the t1/2 in data set [3] was 240 h.

Usually Kd stands for a measure of binding affinity in units of concentration.
